# US20140248254A1, “THE USE OF ACHE AS NUCLEASE” (priority 2011, published 2014)
# B1: Homo AChE (protein)
# chain: EGREDAELLVTVRGGRLRGIRLKTPGGPVSAFLGIPFAEPPMGPRRFLPPEPKQPWSGVVDATTFQSVCYQYVDTLYPGFEGTEMWNPNRELSEDCLYLNVWTPYPRPTSPTPVLVWIYGGGFYSGASSLDVYDGRFLVQAERTVLVSMNYRVGAFGFLALPGSREAPGNVGLLDQRLALQWVQENVAAFGGDPTSVTLFGESAGAASVGMHLLSPPSRGLFHRAVLQSGAPNGPWATVGMGEARRRATQLAHLVGCPPGGTGGNDTELVACLRTRPAQVLVNHEWHVLPQESVFRFSFVPVVDGDFLSDTPEALINAGDFHGLQVLVGVVKDEGSYFLVYGAPGFSKDNESLISRAEFLAGVRVGVPQVSDLAAEAVVLHYTDWLHPEDPARLREALSDVVGDHNVVCPVAQLAGRLAAQGARVYAYVFEHRASTLSWPLWMGVPHGYEIEFIFGIPLDPSRNYTAEEKIFAQRLMRYWANFARTGDPNEPRDPKAPQWPPYTAGAQQYVSLDLR
# B2: Mus AChE (protein)
# chain: EGREDPQLLVRVRGGQLRGIRLKAPGGPVSAFLGIPFAEPPVGSRRFMPPEPKRPWSGVLDATTFQNVCYQYVDTLYPGFEGTEMWNPNRELSEDCLYLNVWTPYPRPASPTPVLIWIYGGGFYSGAASLDVYDGRFLAQVEGAVLVSMNYRVGTFGFLALPGSREAPGNVGLLDQRLALQWVQENIAAFGGDPMSVTLFGESAGAASVGMHILSLPSRSLFHRAVLQSGTPNGPWATVSAGEARRRATLLARLVGCPPGGAGGNDTELIACLRTRPAQDLVDHEWHVLPQESIFRFSFVPVVDGDFLSDTPEALINTGDFQDLQVLVGVVKDEGSYFLVYGVPGFSKDNESLISRAQFLAGVRIGVPQASDLAAEAVVLHYTDWLHPEDPTHLRDAMSAVVGDHNVVCPVAQLAGRLAAQGARVYAYIFEHRASTLTWPLWMGVPHGYEIEFIFGLPLDPSLNYTTEERIFAQRLMKYWTNFARTGDPNDPRDSKSPQWPPYTTAAQQYVSLNLKP
# B3: AChE (protein, listed as Homo Sapiens)
# chain: MRPPQCLLHTPSLASPLLLLLLWLLGGGVGAEGREDAELLVTVRGGRLRGIRLKTPGGPVSAFLGIPFAEPPMGPRRFLPPEPKQPWSGVVDATTFQSVCYQYVDTLYPGFEGTEMWNPNRELSEDCLYLNVWTPYPRPTSPTPVLVWIYGGGFYSGASSLDVYDGRFLVQAERTVLVSMNYRVGAFGFLALPGSREAPGNVGLLDQRLALQWVQENVAAFGGDPTSVTLFGESAGAASVGMHLLSPPSRGLFHRAVLQSGAPNGPWATVGMGEARRRATQLAHLVGCPPGGTGGNDTELVACLRTRPAQVLVNHEWHVLPQESVFRFSFVPVVDGDFLSDTPEALINAGDFHGLQVLVGVVKDEGSYFLVYGAPGFSKDNESLISRAEFLAGVRVGVPQVSDLAAEAVVLHYTDWLHPEDPARLREALSDVVGDHNVVCPVAQLAGRLAAQGARVYAYVFEHRASTLSWPLWMGVPHGYEIEFIFGIPLDPSRNYTAEEKIFAQRLMRYWANFARTGDPNEPRDPKAPQWPPYTAGAQQYVSLDLRPLEVRRGLRAQACAFWNRFLPKLLSATDTLDEAERQWKAEFHRWSSYMVHWKNQFDHYSKQDRCSDL
# Key:
# [1] = tested on: plasmid DNA (pEGFP-C1 plasmid); test: In vitro DNase activity: cleavage of plasmid DNA by purified protein; format: biochemical; settings: for cleavage of plasmid DNA from supercoil (SC) into Nick and Linear structures: cell free system, 37° C.
# Description: D. The results of 1% agarose electrophoresis before which pEGFP-C1 plasmid DNA and Homo or Mus AChE protein (0, 0.5, 1 and 2 μg) were coincubated for 6 h. EcoR was used to indicate linear DNA. MK indicated molecular weight marker.
# E. the plasmid splitting with increasing time of the incubation of pEGFP-C1 plasmid DNA (150 ng) and Homo or Mus AChE protein (1 μg)). The above experiment was repeated for 3 times.
# G. Commercial AChE isolated from Ee1 was incubated in different doses with plasmid DNA, and two bovine serum albumins (BSA1, BSA2) purchased from different companies were used as control at the same time; after being incubated for 5 h, they were subjected to DNA gel electrophoresis.
# H. Commercial AChE isolated from Ee1 was incubated with plasmid DNA for different durations, and two bovine serum albumins (BSA1, BSA2) purchased from different companies were used as control at the same time. They were then subjected to DNA gel electrophoresis.
# B. The influence of pH value on AChE nuclease activity. Plasmid DNA was incubated with Homo AChE protein under different pH conditions for 3 h.
# Purified plasmid DNA was used as substrate for detection. In the experiment of cleaving of plasmid DNA, 0.15 μg of plasmid DNA with a transfection-grade purity (pEGFP-C1 plasmid, Clotech) was added to 10 μl buffer system containing (5.0 mM Tris-HCl, PH 7.5; 2.5 mM CaCl2; 5.0 mM MgCl2). 1 μg (or an amount indicated in Examples) of purified AChE proteins of human or mouse origin (AChE 1-547AA corresponding to human; AChE1-548AA corresponding to mouse) was further added, and incubated in 37° C. Sampling at 6 h (or timepoints indicated in Examples).
# [2] = tested on: HeLa cell; test: Screening Method 3: DNA breakage (Tunnel) in fixed, permeabilized HeLa cells treated with protein; format: cell-based, human; settings: AChE protein 1 μg/μl, 1-2 hr 37° C., compared with BSA group
# Description: HeLa cells were plated in 96-well plate with a 60% density, and after complete adherence, the cells were fixed with 4% PFA for 10 min, and permeabilized with 0.1% sodium citrate +0.1% Triton X-100 for 10 min, for twice. After PBS washing, cells were divided into five groups, as follows:
# AChE protein group: HeLa cell, treated with AChE protein (1 μg/μl) after fixation and permeabilization treatment;
# Cells of each group were incubated for 1-2 hr in 37° C.; Washed twice with PBS, and fixed with 4% PFA for 10 min. Tunnel reagent was added, incubated for 1 hr in 37° C.; and then washed three times with PBS, stained with Hoechest. Observation was performed by fluorescence microscope.
# [3] = tested on: DNA; test: Dissociation constant between protein and DNA (Bio Core T100 assay); format: binding
# Source text: AChE protein and DNase I presented similar binding curves.
# Meanwhile, the inventors detected environment characteristics in which AChE cleaving DNA. DNase activity of AChE was Mg2+-dependent, while Ca2+ could only play a weak supporting role (FIG. 5a). In a relatively wide pH range of pH 7.0-10.0 (similar to in vivo pH environment during apoptosis), AChE can fully play its function of cleaving DNA (FIG. 5b).
Molecule,cleavage of plasmid DNA from supercoil (SC) into Nick and Linear structures [1],"DNA cleaving activity at pH 5-6 ([1]; Homo AChE protein, pH 5-6, 3 h)","DNA cleaving activity at pH 7-10 ([1]; Homo AChE protein, pH 7-10, 3 h)",intracellular DNA breakage [2],affinity for DNA relative to that of DNase I ([3]; from Kd values),Kd ([3]; software analysis of binding curves) [µM]
B1,effectively cleave plasmid DNA,–,–,–,–,–
B2,effectively cleave plasmid DNA,–,–,–,–,–
B3,–,reduced slightly,can effectively function to cleave DNA,obvious breakage,about 74%,1.53
